Assay results taken from patent US20220064316A1 (published 2022).

T1: human BCMA (B-cell maturation antigen) on cells (human, UniProt Q02223 1-184)
T1 sequence (looked up): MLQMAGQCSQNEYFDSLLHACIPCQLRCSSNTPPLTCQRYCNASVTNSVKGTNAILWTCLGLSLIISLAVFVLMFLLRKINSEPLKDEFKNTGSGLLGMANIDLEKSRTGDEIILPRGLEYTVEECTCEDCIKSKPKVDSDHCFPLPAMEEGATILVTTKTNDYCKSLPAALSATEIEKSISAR

T2: BCMA-Fc antigen (R&D Systems) (UniProt Q02223 1-54)
T2 construct: also called BCMA fc fusion protein (R&D Systems, cat #193-BC-050); recombinant BCMA-Fc; not shown: Fc portion of the bought fusion protein
T2 sequence (looked up): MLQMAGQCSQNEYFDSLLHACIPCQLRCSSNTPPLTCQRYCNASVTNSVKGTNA

B1: BCMA-9 CAR (139108) (other)
chain: QVQLVESGGGLVKPGGSLRLSCAASGFTFSDYYMSWIRQAPGKGLEWVSYISSSGSTIYYADSVKGRFTISRDNAKNSLYLQMNSLRAEDTAVYYCARESGDGMDVWGQGTTVTVSSASGGGGSGGRASGGGGSDIQMTQSPSSLSASVGDRVTITCRASQSISSYLNWYQQKPGKAPKLLIYAASSLQSGVPSRFSGSGSGTDFTLTISSLQPEDFATYYCQQSYTLAFGQGTKVDIKTTTPAPRPPTPAPTIASQPLSLRPEACRPAAGGAVHTRGLDFACDIYIWAPLAGTCGVLLLSLVITLYCKRGRKKLLYIFKQPFMRPVQTTQEEDGCSCRFPEEEEGGCELRVKFSRSADAPAYKQGQNQLYNELNLGRREEYDVLDKRRGRDPEMGGKPRRKNPQEGLYNELQKDKMAEAYSEIGMKGERRRGKGHDGLYQGLSTATKDTYDALHMQALPPR
notes: also called OG62-93QB
B2: BCMA-4 CAR (139103) (other)
chain: QVQLVESGGGLVQPGRSLRLSCAASGFTFSNYAMSWVRQAPGKGLGWVSGISRSGENTYYADSVKGRFTISRDNSKNTLYLQMNSLRDEDTAVYYCARSPAHYYGGMDVWGQGTTVTVSSASGGGGSGGRASGGGGSDIVLTQSPGTLSLSPGERATLSCRASQSISSSFLAWYQQKPGQAPRLLIYGASRRATGIPDRFSGSGSGTDFTLTISRLEPEDSAVYYCQQYHSSPSWTFGQGTKLEIKTTTPAPRPPTPAPTIASQPLSLRPEACRPAAGGAVHTRGLDFACDIYIWAPLAGTCGVLLLSLVITLYCKRGRKKLLYIFKQPFMRPVQTTQEEDGCSCRFPEEEEGGCELRVKFSRSADAPAYKQGQNQLYNELNLGRREEYDVLDKRRGRDPEMGGKPRRKNPQEGLYNELQKDKMAEAYSEIGMKGERRRGKGHDGLYQGLSTATKDTYDALHMQALPPR
notes: also called B4; JF32-78IB
B3: BCMA-5 CAR (139104) (other)
chain: EVQLLETGGGLVQPGGSLRLSCAVSGFALSNHGMSWVRRAPGKGLEWVSGIVYSGSTYYAASVKGRFTISRDNSRNTLYLQMNSLRPEDTAIYYCSAHGGESDVWGQGTTVTVSSASGGGGSGGRASGGGGSEIVLTQSPATLSVSPGESATLSCRASQSVSSNLAWYQQKPGQAPRLLIYGASTRASGIPDRFSGSGSGTDFTLTISSLQAEDVAVYYCQQYGSSLTFGGGTKVEIKTTTPAPRPPTPAPTIASQPLSLRPEACRPAAGGAVHTRGLDFACDIYIWAPLAGTCGVLLLSLVITLYCKRGRKKLLYIFKQPFMRPVQTTQEEDGCSCRFPEEEEGGCELRVKFSRSADAPAYKQGQNQLYNELNLGRREEYDVLDKRRGRDPEMGGKPRRKNPQEGLYNELQKDKMAEAYSEIGMKGERRRGKGHDGLYQGLSTATKDTYDALHMQALPPR
notes: also called AR99-08FA
B4: BCMA-7 CAR (139106) (other)
chain: EVQLVETGGGLVQPGGSLRLSCAVSGFALSNHGMSWVRRAPGKGLEWVSGIVYSGSTYYAASVKGRFTISRDNSRNTLYLQMNSLRPEDTAIYYCSAHGGESDVWGQGTTVTVSSASGGGGSGGRASGGGGSEIVMTQSPATLSVSPGERATLSCRASQSVSSKLAWYQQKPGQAPRLLMYGASIRATGIPDRFSGSGSGTEFTLTISSLEPEDFAVYYCQQYGSSSWTFGQGTKVEIKTTTPAPRPPTPAPTIASQPLSLRPEACRPAAGGAVHTRGLDFACDIYIWAPLAGTCGVLLLSLVITLYCKRGRKKLLYIFKQPFMRPVQTTQEEDGCSCRFPEEEEGGCELRVKFSRSADAPAYKQGQNQLYNELNLGRREEYDVLDKRRGRDPEMGGKPRRKNPQEGLYNELQKDKMAEAYSEIGMKGERRRGKGHDGLYQGLSTATKDTYDALHMQALPPR
notes: also called QR91-12ZA
B5: BCMA-4NP tool CAR (other)
chain: QVQLVQSGAEVKKPGSSVKVSCKASGGTFSNYWMHWVRQAPGQGLEWMGATYRGHSDTYYNQKFKGRVTITADKSTSTAYMELSSLRSEDTAVYYCARGAIYNGYDVLDNWGQGTLVTVSSGGGGSGGGGSGGGGSGGGGSDIQMTQSPSSLSASVGDRVTITCSASQDISNYLNWYQQKPGKAPKLLIYYTSNLHSGVPSRFSGSGSGTDFTLTISSLQPEDFATYYCQQYRKLPWTFGQGTKLEIKR
B6: BCMA-11 CAR (139110) (other)
chain: QVQLVQSGGGLVKPGGSLRLSCAASGFTFSDYYMSWIRQAPGKGLEWVSYISSSGNTIYYADSVKGRFTISRDNAKNSLYLQMNSLRAEDTAVYYCARSTMVREDYWGQGTLVTVSSASGGGGSGGRASGGGGSDIVLTQSPLSLPVTLGQPASISCKSSESLVHNSGKTYLNWFHQRPGQSPRRLIYEVSNRDSGVPDRFTGSGSGTDFTLKISRVEAEDVGVYYCMQGTHWPGTFGQGTKLEIKTTTPAPRPPTPAPTIASQPLSLRPEACRPAAGGAVHTRGLDFACDIYIWAPLAGTCGVLLLSLVITLYCKRGRKKLLYIFKQPFMRPVQTTQEEDGCSCRFPEEEEGGCELRVKFSRSADAPAYKQGQNQLYNELNLGRREEYDVLDKRRGRDPEMGGKPRRKNPQEGLYNELQKDKMAEAYSEIGMKGERRRGKGHDGLYQGLSTATKDTYDALHMQALPPR
notes: also called UG65-93FB
B7: BCMA-3 CAR (139102) (other)
chain: QVQLVQSGAEVKKPGASVKVSCKASGYTFSNYGITWVRQAPGQGLEWMGWISAYNGNTNYAQKFQGRVTMTRNTSISTAYMELSSLRSEDTAVYYCARGPYYYYMDVWGKGTMVTVSSASGGGGSGGRASGGGGSEIVMTQSPLSLPVTPGEPASISCRSSQSLLYSNGYNYVDWYLQKPGQSPQLLIYLGSNRASGVPDRFSGSGSGTDFKLQISRVEAEDVGIYYCMQGRQFPYSFGQGTKVEIKTTTPAPRPPTPAPTIASQPLSLRPEACRPAAGGAVHTRGLDFACDIYIWAPLAGTCGVLLLSLVITLYCKRGRKKLLYIFKQPFMRPVQTTQEEDGCSCRFPEEEEGGCELRVKFSRSADAPAYKQGQNQLYNELNLGRREEYDVLDKRRGRDPEMGGKPRRKNPQEGLYNELQKDKMAEAYSEIGMKGERRRGKGHDGLYQGLSTATKDTYDALHMQALPPR
notes: Chimeric antigen receptor; also called KR98-03KA
B8: BCMA-2 CAR (139101) (other)
chain: QVQLQESGGGLVQPGGSLRLSCAASGFTFSSDAMTWVRQAPGKGLEWVSVISGSGGTTYYADSVKGRFTISRDNSKNTLYLQMNSLRAEDTAVYYCAKLDSSGYYYARGPRYWGQGTLVTVSSASGGGGSGGRASGGGGSDIQLTQSPSSLSASVGDRVTITCRASQSISSYLNWYQQKPGKAPKLLIYGASTLASGVPARFSGSGSGTHFTLTINSLQSEDSATYYCQQSYKRASFGQGTKVEIKTTTPAPRPPTPAPTIASQPLSLRPEACRPAAGGAVHTRGLDFACDIYIWAPLAGTCGVLLLSLVITLYCKRGRKKLLYIFKQPFMRPVQTTQEEDGCSCRFPEEEEGGCELRVKFSRSADAPAYKQGQNQLYNELNLGRREEYDVLDKRRGRDPEMGGKPRRKNPQEGLYNELQKDKMAEAYSEIGMKGERRRGKGHDGLYQGLSTATKDTYDALHMQALPPR
notes: also called UR96-08PA

target: T1, human BCMA (B-cell maturation antigen) …; assay: cell-based or functional assay

Binder	JNL binding assay, ratio to K562; K562-BCMA [ratio]	JNL binding assay, ratio to K562; NCI-H929 [ratio]	JNL binding assay, ratio to K562; RPMI 8226 [ratio]	Proliferation CD3, ratio to no target; K562-BCMA [ratio]	Proliferation CD3, ratio to no target; KMS11-luc [ratio]	Proliferation CD3, ratio to no target; NCI-H929 [ratio]	Proliferation CD3, ratio to no target; RPMI 8226 [ratio]	Proliferation CD4, ratio to no target; K562-BCMA [ratio]	Proliferation CD4, ratio to no target; KMS11-luc [ratio]	Proliferation CD4, ratio to no target; NCI-H929 [ratio]
B1	1.59	1.99	1.54	1.51	1.66	4.63	2.5	1.59	1.49	4.45
B2	4.47	3.31	6.25	7.37	8.63	8.64	8.14	9.21	8.6	9.86
B3	2.34	2.34	2.4	1.62	1.61	1.72	1.73	2.19	1.9	2.23
B4	2.55	2.36	2.77	1.72	1.71	1.8	1.62	2.17	1.96	2.23

same assay, conditions: not given

Binder	Proliferation CD4, ratio to no target; RPMI 8226 [ratio]	Proliferation CD8, ratio to no target; K562-BCMA [ratio]	Proliferation CD8, ratio to no target; KMS11-luc [ratio]	Proliferation CD8, ratio to no target; NCI-H929 [ratio]	Proliferation CD8, ratio to no target; RPMI 8226 [ratio]
B1	2.24	1.43	1.83	4.79	2.76
B2	10.1	5.66	8.74	7.42	6.19
B3	2.15	0.99	1.27	1.11	1.25
B4	1.91	1.08	1.35	1.18	1.19

target: T2, BCMA-Fc antigen (R&D Systems); assay: flow cytometry; BCMA-Fc staining of CAR-transduced JNL cells
Experimental: Jurkat-NFAT-luciferase (JNL) cells transduced with BCMA CAR constructs were evaluated for activation in response to BCMA-expressing target cell lines. Small-scale viral supernatant samples were generated in HEK293T cells for transduction of JNL cells. On Day 3 following transduction, BCMA CAR-transduced JNL cells were incubated with target cells at an effector-to-target (E:T) ratio of 6:1. Target cell lines were: K562-BCMA (engineered to stably express BCMA), K562 (parental line), and BCMA positive multiple myeloma cell lines, NCI-H929 and RPMI 8226. JNL activation was measured using Bright-Glo substrate (Promega) on Day 4. CAR expression on transduced JNL was assessed on Day 7 with BCMA-Fc antigen and Biotin-Protein L reagent (Table 21).

Binder	% CAR+ (BCMA-Fc detection) [%]
B1	54.7
B5	28.3
B6	42.7
B7	0
B2	49.5
B3	28.9
B4	30.4
B8	32
